The term Kd denotes the constant that tells how readily two partners part at equilibrium. Lower therefore signals a tighter complex.

These results are taken from article PMC8814693 (Computational and Structural Biotechnology Journal, 2022).

Settings in all cases: both partners purified
Experiment [1] addresses T1, Bcl-2 (residues 1-207) (UniProt P10415 1-207).
T1 construct: Bcl-2, residues 1-207; Cloned in pET-28a(+) between NdeI and XhoI; buffer-exchanged to HBS-EP
The experiment is described as follows: SPR; Bid BH3 peptide amine-coupled to a CM5 chip (10 mM sodium acetate pH 4.0); proteins injected in HBS-EP (10 mM HEPES pH 7.5, 150 mM NaCl, 0.05 mM EDTA, 0.005% Tween 20) at 30 uL/min for 90 s; Biacore T200; affinity experiments, responses plotted against concentration.

For experiment [2], the target named is T2, Bcl-XL (residues 1-209) (UniProt Q07817-1 1-209).
T2 construct: Bcl-XL, residues 1-209; Cloned in pET-28a(+) between NdeI and XhoI; buffer-exchanged to HBS-EP
The experiment is described as above.

Another experiment addresses T3, Bak (residues 23-186) (UniProt Q16611 23-186).
T3 construct: Bak, residues 23-186; Cloned in pET-28a(+) between NdeI and XhoI; buffer-exchanged to HBS-EP
T3 sequence (looked up): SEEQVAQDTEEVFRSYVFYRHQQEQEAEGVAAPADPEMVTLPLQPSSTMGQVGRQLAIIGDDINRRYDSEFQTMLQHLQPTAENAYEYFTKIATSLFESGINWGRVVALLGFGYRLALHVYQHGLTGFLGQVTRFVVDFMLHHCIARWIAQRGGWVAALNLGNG
Described as above.

The target of experiment [3] is T1, Bcl-2 (residues 1-207). The experiment is described as follows: SPR; Bfk BH3 peptide amine-coupled to a CM5 chip (10 mM sodium acetate pH 5.0); Bcl-2, Bcl-XL (3.13-200 nM) and Bak (1.25-40.0 uM) injected in HBS-EP at 30 uL/min for 90 s; Biacore T200; KD by steady-state affinity analysis. For orientation: SPR reads the build-up and loss of mass on a sensor chip optically.

Experiment [4] concerns the target T2, Bcl-XL (residues 1-209). The experiment is described as above.

T2 sequence (Q07817 1-209): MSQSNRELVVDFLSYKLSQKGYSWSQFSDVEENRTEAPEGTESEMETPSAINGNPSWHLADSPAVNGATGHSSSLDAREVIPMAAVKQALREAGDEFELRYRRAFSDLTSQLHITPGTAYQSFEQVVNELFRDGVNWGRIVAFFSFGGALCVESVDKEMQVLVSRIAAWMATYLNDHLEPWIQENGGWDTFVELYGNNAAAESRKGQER
T1 sequence (P10415 1-207): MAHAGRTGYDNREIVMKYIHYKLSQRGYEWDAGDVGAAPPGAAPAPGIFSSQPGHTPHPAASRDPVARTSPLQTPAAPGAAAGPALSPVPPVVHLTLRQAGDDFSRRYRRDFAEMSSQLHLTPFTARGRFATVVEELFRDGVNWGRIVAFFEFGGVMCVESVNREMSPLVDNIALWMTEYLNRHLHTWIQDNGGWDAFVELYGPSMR

B1: synthetic BH3 peptide derived from Bid (residues 79-100) (peptide)
peptide: EDIIRNIARHLAQVGDSMDRS
notes: BH3 peptide of Bid; also called Bid BH3 peptide; representative BH3 peptide; source: synthetic peptide
In the case of B1, the values for the equilibrium dissociation constant (Kd) with Bcl-2 (residues 1-207) [1], with Bcl-XL (residues 1-209) [2] and with Bak (residues 23-186) were 44 nM, 87 nM and 37000 nM, respectively.

B2: synthetic BH3 peptide derived from Bfk (residues 47-67) (peptide)
peptide: SFDVAIIAGRLRMLGDQFNGE
notes: BH3 peptide of human Bfk (BCL2L15), residues 47-67; also called Bfk BH3 peptide; Bfk BH3; source: synthetic peptide
In the case of B2, the dissociation constant Kd with Bcl-2 (residues 1-207) [3] was 17.4 nM; with Bcl-XL (residues 1-209) [4], 36.9 nM.
